Paper PMC10804811 (Protein Science : A Publication of the Protein Society, 2024)

B1: HsCNNM4 extracellular domain A149S (Jalili syndrome mutation) (domain or fragment, human, UniProt Q6P4Q7 44-175, looked up)
chain: GTIVGMRLASCNKSCGTNPDGIIFVSEGSTVNLRLYGYSLGNISSNLISFTEVDDAETLHKSTSCLELTKDLVVQQLVNVSRGNTSGVLVVLTKFLRRSESMKLYSLCTRAQPDGPWLKWTDKDSLLFMVEE
B2: HsCNNM4 extracellular domain (residues 44–175) R50A (domain or fragment, human, UniProt Q6P4Q7 44-175, looked up)
chain: GTIVGMALASCNKSCGTNPDGIIFVSEGSTVNLRLYGYSLGNISSNLISFTEVDDAETLHKSTSCLELTKDLVVQQLVNVSRGNTSGVLVVLTKFLRRSESMKLYALCTRAQPDGPWLKWTDKDSLLFMVEE
B3: HsCNNM4 extracellular domain M145T (Jalili syndrome mutation) (domain or fragment, human, UniProt Q6P4Q7 44-175, looked up)
chain: GTIVGMRLASCNKSCGTNPDGIIFVSEGSTVNLRLYGYSLGNISSNLISFTEVDDAETLHKSTSCLELTKDLVVQQLVNVSRGNTSGVLVVLTKFLRRSESTKLYALCTRAQPDGPWLKWTDKDSLLFMVEE
B4: HsCNNM4 extracellular domain E95Q (Jalili syndrome mutation) (domain or fragment, human, UniProt Q6P4Q7 44-175, looked up)
chain: GTIVGMRLASCNKSCGTNPDGIIFVSEGSTVNLRLYGYSLGNISSNLISFTQVDDAETLHKSTSCLELTKDLVVQQLVNVSRGNTSGVLVVLTKFLRRSESMKLYALCTRAQPDGPWLKWTDKDSLLFMVEE
B5: HsCNNM4 extracellular domain (residues 44–175), wild type (domain or fragment, human, UniProt Q6P4Q7 44-175, looked up)
chain: GTIVGMRLASCNKSCGTNPDGIIFVSEGSTVNLRLYGYSLGNISSNLISFTEVDDAETLHKSTSCLELTKDLVVQQLVNVSRGNTSGVLVVLTKFLRRSESMKLYALCTRAQPDGPWLKWTDKDSLLFMVEE
B6: HsCNNM4 extracellular domain N85D (Jalili syndrome mutation) (domain or fragment, human, UniProt Q6P4Q7 44-175, looked up)
chain: GTIVGMRLASCNKSCGTNPDGIIFVSEGSTVNLRLYGYSLGDISSNLISFTEVDDAETLHKSTSCLELTKDLVVQQLVNVSRGNTSGVLVVLTKFLRRSESMKLYALCTRAQPDGPWLKWTDKDSLLFMVEE

What was measured:
[1] = biological target: EgCNNM4 extracellular domain (residues 25–153), wild type (Echinococcus granulosus); assay: AUC
[2] = biological target: the molecule itself; assay: AUC

Molecule	stoichiometry N [1]	stoichiometry N [2]
EgCNNM4 extracellular domain (residues 25–153), wild type (domain or fragment)	2	
B1		2
B2		2
B3		2
B4		2
B5		2
B6		2
